# Test results: PMC3654228 (Nature communications, 2012)
# T1: 6His-RBD-psiRRM-LRR (Homo sapiens, UniProt Q9UBU9 1-372)
# T1 sequence: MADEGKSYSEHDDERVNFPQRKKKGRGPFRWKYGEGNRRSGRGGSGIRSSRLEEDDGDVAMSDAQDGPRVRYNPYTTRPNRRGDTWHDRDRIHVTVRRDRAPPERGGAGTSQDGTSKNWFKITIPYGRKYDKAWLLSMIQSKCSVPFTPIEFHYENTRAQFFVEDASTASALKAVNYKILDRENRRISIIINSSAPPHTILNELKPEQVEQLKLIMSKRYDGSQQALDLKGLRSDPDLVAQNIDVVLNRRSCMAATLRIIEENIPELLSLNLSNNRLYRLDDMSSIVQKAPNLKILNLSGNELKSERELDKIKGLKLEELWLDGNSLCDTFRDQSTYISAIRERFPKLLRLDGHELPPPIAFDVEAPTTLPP
# T2: GST-RBD-psiRRM-LRR (Homo sapiens, UniProt Q9UBU9 1-372)
# T2 sequence: T1 sequence
# T3: Nxf1 (of the Nxf1:p15 used for gel filtration) (human, UniProt Q9UBU9 1-619)
# T3 sequence (looked up): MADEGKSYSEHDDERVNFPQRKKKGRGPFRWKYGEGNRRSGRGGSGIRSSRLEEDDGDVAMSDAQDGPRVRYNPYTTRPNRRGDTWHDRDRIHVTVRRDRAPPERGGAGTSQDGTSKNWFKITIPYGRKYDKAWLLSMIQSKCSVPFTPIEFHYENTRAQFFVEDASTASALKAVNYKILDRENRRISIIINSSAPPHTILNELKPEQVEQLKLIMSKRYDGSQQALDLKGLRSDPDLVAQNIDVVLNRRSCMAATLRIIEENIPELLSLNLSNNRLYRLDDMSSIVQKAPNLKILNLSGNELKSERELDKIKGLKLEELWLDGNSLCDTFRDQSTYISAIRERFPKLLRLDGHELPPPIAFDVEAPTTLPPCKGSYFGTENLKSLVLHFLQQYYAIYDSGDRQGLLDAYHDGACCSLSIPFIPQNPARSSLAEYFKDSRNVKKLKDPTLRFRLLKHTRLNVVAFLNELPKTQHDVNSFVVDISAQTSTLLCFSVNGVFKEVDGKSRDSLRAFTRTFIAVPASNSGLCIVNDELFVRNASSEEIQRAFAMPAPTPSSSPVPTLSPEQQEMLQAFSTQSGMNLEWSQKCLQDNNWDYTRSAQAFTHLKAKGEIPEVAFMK
# B1: p15 (natural protein)
# chain: MASVDFKTYVDQACRAAEEFVNVYYTTMDKRRRLLSRLYMGTATLVWNGNAVSGQESLSEFFEMLPSSEFQISVVDCQPVHDEATPSQTTVLVVICGSVKFEGNKQRDFNQNFILTAQASPSNTVWKIASDCFRFQDWAS
# Columns and labels:
# Aly = Aly (UniProt Q9JJW6 1-218); experiment: UV crosslinking
# 6His-RBD-psiRRM-LRR = biological target: T1, 6His-RBD-psiRRM-LRR; experiment: UV crosslinking
# GST-Nxf1:p15;Aly = GST-Nxf1:p15;Aly (Homo sapiens;, UniProt Q9UBU9;Q9UKK6;Q9JJW6 1-619;1-140;1-218, |); experiment: GST pulldown then UV crosslinking
# GST-Nxf1:p15;Aly;Thoc5 = GST-Nxf1:p15;Aly;Thoc5 (Homo sapiens;;Homo sapiens?, UniProt Q9UBU9;Q9UKK6;Q9JJW6;Q13769 1-619;1-140;1-218;1-683, ||); experiment: GST pulldown then UV crosslinking
# GST-RBD-psiRRM-LRR = biological target: T2, GST-RBD-psiRRM-LRR; experiment: UV crosslinking
# [1] = biological target: T3, Nxf1 (of the Nxf1:p15 used for gel …); experiment: SEC
stoichiometry N [1],Binder,binding result (Aly),binding result (6His-RBD-psiRRM-LRR),binding result (GST-Nxf1:p15;Aly),binding result (GST-Nxf1:p15;Aly;Thoc5),binding result (GST-RBD-psiRRM-LRR)
,CAGUCGCAUAGUGCA (ssRNA) [15-mer RNA],binds,binds,binds,binds,binds
1,B1,,,,,
